Source: the nanobody polyreactivity screen of Harvey et al. (2022)

experiment: yeast display, Sf9 membrane polyspecificity reagent, FACS + sequencing; frameworks hold sequencing errors
Procedure, shortened: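 Galactose induction of a Saccharomyces cerevisiae BJ5465 synthetic nanobody display library ran 36–48 hours. The cells were then stained for 1 hour at 4 °C with 10% biotinylated, detergent-solubilized Sf9 membrane reagent, pulled down on streptavidin microbeads and FACS-sorted into low and high (top ~1%) gates on expression and reagent-binding fluorescence. Labels for polyreactivity follow the gate of origin.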

Sequence | polyreactivity (PSR sort gate)
QVQHVESGGGLVQAGGSLRISCAASGFISTGNAMGWSRQAPGKERELVAAITTGGSTYYADSVKGRFTISRDNAKNTVYLQMNSLKPEDTAVYYCNAVYVWWDGWGLYYWGQGTQGTVSS | low polyreactivity
QVQHVESGGGLVQAGGSLRLICAASGYIFRGYVMGWYRQAPGKERELVAAITSRGDSTYYADSVKGRFTISRDNAKNTVYLPMNSLKPEDTAVYYCAARGGVLKGYYYWGQGTQVTVSS | high polyreactivity
QVQHVESGGGLVQAGGSLRLRCAASGSIFYRYVMGWYRQAHGKERELVAAISVSGGTTYYADSVKGRITISRDNAKNTVYLQMNRLKPEDTAVYYCAAEDSLTEDPAHDYWGQGTQVTVSS | low polyreactivity
QVQHVESGGGLVQAGGSLRLSCAASGFIFAANAMGWYRQGPGKERELVAAINYRGSSTYYADSVKGRFTISRDNAKNTVNLQMNSLKPEDTAVYYCAARSGAQRGGGYWGQGTQVTVSS | high polyreactivity
QVQHVESGGGLVQAGGSLRLSCAASGFIFPYYAMGWYRQAPGKERELVAAINSGTSTYYADSVKGRFTISRDNAKNTVYLQMNSLKPEDTAVYYCAAAYPLWYEYDYWGQGTQVTVSS | low polyreactivity
QVQHVESGGGLVQAGGSLRLSCAASGFIFRSYAMGWFRQAPGKERELVAAISNGVITNYADSVKGRFTISRDNSKNTVYLQRNSLKPEDTAVYYCDADYNSQDDYWGQGTQVTVSS | low polyreactivity
QVQHVESGGGLVQAGGSLRLSCAASGFIFSWNAMGWYRQAPGKERELVAGISWSGGSTYYADSVKGRFTISRDNAKNTVYLQMNRLKPEDTAVYYCAKEPSVGTGGVYRYGRGDYWGQGTQVTVSS | low polyreactivity
QVQHVESGGGLVQAGGSLRLSCAASGFTFATYAMGWYRQAQGKERELVAAISRGTSTYYADSVKGRFTISRVNAKNTVYLQMNSLIPDDTAVYYCAATSSFRYDYWGKGTQVTVSS | low polyreactivity
QVQHVESGGGLVQAGGSLRLSCAASGFTFGYYAMGWYRQAPGKERELVAAISGSGGGTYYADSVKGRFTISRDNAKNTVYLQMNSLKPEDTAVYYCNTGRYDRKYDYWGQGTQVTVSS | high polyreactivity
QVQHVESGGGLVQAGGSLRLSCAASGFTFPGYAMGWYRQAPGKERELVAAISSSGGRTNYADSVKGRFTISRDNAKNTVYLQMNSLKPEDTAVYYCKAVRTVRSYLQLTRHLVYWGQGTQVTVSS | high polyreactivity
QVQHVESGGGLVQAGGSLRLSCAASGFTFRHNAMGWYRQAPGKERELVAAMTKSGRRTYDADSVKGRFTISRDNAKNTVYLQMNSLKPEDTAVYYCKKDLRQSYANVDYWGQGTQVTVSS | high polyreactivity
QVQHVESGGGLVQAGGSLRLSCAASGFTFRRYAMGWYRQAPGKERELVAAISINGGSTYYADSVKGRFTISRDNAMNTVYLQMNSLKPEDTAVYYCNKGSVRGEYDYWGQGTLVTVSS | high polyreactivity
QVQHVESGGGLVQAGGSLRLSCAASGFTFSVYVLGWSRQAPGKERELVAAITWSGGSTYYADSEQGRITISRDHAKNTVYLQMNSQKPQETAVYYCAAQAFSPHYGWFYYWGQGTQVTVSS | high polyreactivity
QVQHVESGGGLVQAGGSLRLSCAASGFTSTVYAMGCYRQAPGKERELVASITWSGGRTYYADSVKGRFTISRDNAKNTVYFQMNSLKPEDTAVYYCAARTYSYGSILKYYYWGQGSQVTVSS | high polyreactivity
QVQHVESGGGLVQAGGSLRLSCAASGGIFYYNTMGWYRQAPGKERELVAAITGGGRTNYADSVKGRFTISRDNAKNTVYLQMNSLKPEDTAVYYCNAVYWRTRMDYWGQGTQVTVSS | high polyreactivity
QVQHVESGGGLVQAGGSLRLSCAASGGTFYGYAMGCYRQAPGKERELVAVITYSGGSTYYADSVKGRFTISRDNAKNTVYLQMYSLKPEDTAVYYCAADVKYGYDWGQGTQVTVSS | high polyreactivity
QVQHVESGGGLVQAGGSLRLSCAASGIIFGHYDMGWYRQAPGKERELVAAITFTGDSTYYADSVKGRFTISRDNAKITVYLQMNSLKPEDTAVYFCAADTPVPWGSWGYDYWGQGTQVTVSS | low polyreactivity
QVQHVESGGGLVQAGGSLRLSCAASGITFNEYAMGWYRQAPGKEREFVAAISSSGARTYYADSVKGRFTISRDNAKNTVYLQMNSLKPEDTAVYYCAAVYRSWTSYNGRNYWGQGTQVTVSS | high polyreactivity
QVQHVESGGGLVQAGGSLRLSCAASGITFSSYAMGWYRQAPGKERELVAAISSGGSTYYADSVKGRFTISRDNAKNTVYFQMNSLKPEDTAVYYCAAELATYVPNKWYYRYTGYYYWGQGTQVTVSS | low polyreactivity
QVQHVESGGGLVQAGGSLRLSCAASGIYYNAMGWYRQAPGKERELVAVITYSGGSTYYADSVKGRFTISRDNAKNTVYLQMNSLKPEETAVYYCAADDYYVALPGLYDYWGQGTQVTVSS | low polyreactivity
QVQHVESGGGLVQAGGSLRLSCAASGLTFSTYDMGWYRQAPGKERDLVAAITYSGGSTYYADSVKGRFTISRDHAKNTVYLQMNSLKPEDTAVYYSATTWYFVASWYVAIYDYWGQGTQVTVST | low polyreactivity
QVQHVESGGGLVQAGGSLRLSCAASGLTIWYYAIGWYRQAPGKEREFVAAITSRGGDTYYADSVKGRFTISRDNAKNTVYLQLNSLKPEDTGVYYCAVRPRYYGTYRYYYWGQGTQVTVSS | high polyreactivity

Sequence | polyreactivity (PSR sort gate)
QVQHVESGGGLVQAGGSLRLSCAASGRIFGTYAMGWYRPAPGKERELVAAISWRGGSTYYADSVKGRFTISRDNAKNTVYLQMNSLKPEDTAVYYCAATWWSPSRGTKGDYWGQGTQVTVSS | low polyreactivity
QVQHVESGGGLVQAGGSLRLSCAASGRIFQRNTMGWYRQAPGKERELVARINYSGGSTYYADSVKGRFTISRDNAKTTVYLQLNSLKPEDTAVYYCAARVWTWSIYYPAGLSSYDYWGQGTQVTVSS | low polyreactivity
QVQHVESGGGLVQAGGSLRLSCAASGRIFSFYVMGWYRQAPGKERELVAVIRKNGGSTYYADSVKGRFTISRDNAKNTVYLQMNSLKPEDTAVYYCTARSVPRYGYWGLGTQVTVSS | high polyreactivity
QVQHVESGGGLVQAGGSLRLSCAASGRIFVAYTMGWYRQAPGKERELVAGISRSGGSTYYADSVKGRFTISRDNAKNTVYLQMNNLKPEDTAVYYCAVGNWRLFPYGYWGQGTQVTVSS | high polyreactivity
QVQHVESGGGLVQAGGSLRLSCAASGRIFYLNAMGWYRQAPGKERELVAAISRVGRTNYADSVKGRFTISRDNAKNTVYLQMNSLKPEDTAVYYCAAVYYSVNGRHGYWGQGTQVTVSS | high polyreactivity
QVQHVESGGGLVQAGGSLRLSCAASGRIIRRNARGSYRLAPGKERELVAAISWSGGSTYYADSVKGRFTISRDNAKNSVDLQMNSLKQEDTAVYYCAAVPCYTGDYWGQGTQVTVSS | low polyreactivity
QVQHVESGGGLVQAGGSLRLSCAASGRIYRKAMGWYRQAPGKERELVAVITRGGSTNYADSVKGRFTISRDNAKNSVYLQMNSLKPEDTAVYYCAATYSYRFSSFDYWGQGTQVTVSS | high polyreactivity
QVQHVESGGGLVQAGGSLRLSCAASGRTFAQYTMGWYRQAPGKERELVAGIDWSGGNTYYADSVKGRFTISRDNAKNTVYLQMNSLKPVDTAVYYCAAVPAFYNAWGEDYEYWGQGTQVTVSS | low polyreactivity
QVQHVESGGGLVQAGGSLRLSCAASGRTFGSNAMGWYRQAPGKERELVAAISLRGGRTYYADSVKGRFTISRDNAKNTVYLLMNSLKPEDTAVYYCNAVHYLYGARSRLTYDYWGQGTQVTVSS | high polyreactivity
QVQHVESGGGLVQAGGSLRLSCAASGRTFPPYDMGWYRQAPGKERELVAAITSDGSTSYADSVKGRFTISRDNAKNTVYLQMNSLKPEDTAVYYCAAYRWYSAARMGYWGQGTQVTVSS | high polyreactivity
QVQHVESGGGLVQAGGSLRLSCAASGRTFRLYAMGRYRMAPGKERELVAAITRGGRTNYADSVKGRFTISRDNAKNTVYLQMNSLKPEDTAVYYCAVAGFDRGQYVRYYYWGQGTQVTVSS | low polyreactivity
QVQHVESGGGLVQAGGSLRLSCAASGRTIIKYAMGWYRQAPGKERELVAAISRSAGSTYYADSVKGRFTISRDNAKNTVYLQMNSLKPEDTAVYYCNAVTSSYLRFDYWGQGTQVTVSS | high polyreactivity
QVQHVESGGGLVQAGGSLRLSCAASGRTITNYVMGWYRQSPGKEREFVATITARGGSTNYADSVKGRFTISRDNAKNTVYLQMNSLKPEDTAVYYCAAGRRFTVAYGYFYWGQGTQVTVSS | high polyreactivity
QVQHVESGGGLVQAGGSLRLSCAASGRTTYTNARGWYRQAPGKERELVASISWRGGSSYYADSVKGRFTISRDNAKNTVYLQMNSLIPEDTAVYYCAASWPRWWRFGYWGQGTQVTVSS | low polyreactivity
QVQHVESGGGLVQAGGSLRLSCAASGRTYGYYAMGWYRQAPGKERELVAAITRTGGSTHYADSVKGRFTISRDNAKNTVYLQMNSLKPEDTAVYYFARTSRHVRYDYWGEGTQVTVSS | low polyreactivity
QVQHVESGGGLVQAGGSLRLSCAASGSIFLVYAMGWYRLAPGKERELVAAISNSGSTNYADSVKGRFTISRDNAKNTVYLQMNSLKPEDTAVYYCAKDSLVDHVGGYDYWGHGTQVTVSS | low polyreactivity
QVQHVESGGGLVQAGGSLRLSCAASGSIFQKNAMGWYRKAPGKERELVAVITRGGTSTYYADSVKGRFTISRDNAKNTVYLQMNSLKPEDTAVYYCAAKADKRLDYWGQGTQVTVSS | low polyreactivity
QVQHVESGGGLVQAGGSLRLSCAASGSIFSHYAMGWYRQEPGKERELVATITWRGGSNTNYADSVKGRFTISRDNAKNTVYLQMNSLKPEDTAVYYCNAAFPYHYRFDYWGQGTQVTVSS | low polyreactivity
QVQHVESGGGLVQAGGSLRLSCAASGSIFTVNAMGWYRQAPGKERELVAAIDGSSGSTNYADSVKGRFTISRDNAKNTVYLQMNSLKPEDTAVYYCAADWSYEYGYWGQGTQVTVSS | low polyreactivity
QVQHVESGGGLVQAGGSLRLSCAASGSIFVPYALGWSRQAPGKEREFVAVISLRGSRTYYADSVKGRFTISRDNAKNTVYLQMNSLKPEDTAVYYCATTGYRLRQATRYDYRGQGTQVTVSS | high polyreactivity
QVQHVESGGGLVQAGGSLRLSCAASGSIFWYYAKGWYRQAPGKERELVATITSGGSTSYADSVKGRFTISRDNAKNPVYLQMNSLKPEDTAVYYCAAARLFTTYDWGQGTQVTVSS | low polyreactivity
